Measurements from paper PMC8883962.

Key:
[1] = target: Streptococcal Protein G (SpG) (groups C and G of Streptococcal bacteria) (UniProt P06654); assay: BLI
[2] = target: Staphylococcal Protein A (SpA) (Staphylococcus aureus) (UniProt P38507); assay: BLI

Substance | Kd [1] [nM] | Kd [2] [nM]
Pertuzumab Vκ5–VH3 IgG1 (from UniProt P01857) | 0.34 | 0.94
Trastuzumab Vκ6–VH6 IgG1 (from UniProt P01857) | 0.51 | 1.78
Trastuzumab Vκ2–VH1 IgG1 (from UniProt P01857) | 0.39 | –
Pertuzumab Vκ6–VH3 IgG1 (from UniProt P01857) | 0.28 | 0.41
Pertuzumab Vκ2–VH5 IgG1 (from UniProt P01857) | 0.3 | 1.62
Trastuzumab Vκ2–VH7 IgG1 (from UniProt P01857) | 0.23 | 0.53
Pertuzumab Vκ6–VH5 IgG1 (from UniProt P01857) | 0.26 | 1.26
Pertuzumab Vκ6–VH1 IgG1 (from UniProt P01857) | 0.29 | 0.94
Pertuzumab Vκ2–VH6 IgG1 (from UniProt P01857) | 0.32 | 1.55
Pertuzumab Vκ2–VH3 IgG1 (from UniProt P01857) | 0.38 | 0.76
Trastuzumab Vκ2–VH5 IgG1 (from UniProt P01857) | 0.27 | 1.11
Pertuzumab Vκ5–VH7 IgG1 (from UniProt P01857) | 0.32 | –
Trastuzumab Vκ6–VH7 IgG1 (from UniProt P01857) | 0.3 | 0.6
Trastuzumab Vκ6–VH5 IgG1 (from UniProt P01857) | – | 0.84
Trastuzumab Vκ6–VH3 IgG1 (from UniProt P01857) | 0.27 | 0.31
Trastuzumab Vκ6–VH4 IgG1 (from UniProt P01857) | 0.36 | –
Pertuzumab Vκ2–VH7 IgG1 (from UniProt P01857) | 0.36 | –
Trastuzumab Vκ2–VH2 IgG1 (from UniProt P01857) | 0.69 | 1.46
Trastuzumab Vκ2–VH3 IgG1 (from UniProt P01857) | 0.29 | 0.24
Trastuzumab Vκ6–VH1 IgG1 (from UniProt P01857) | 0.32 | –
Trastuzumab Vκ2–VH6 IgG1 (from UniProt P01857) | – | 1.79
Pertuzumab Vκ2–VH2 IgG1 (from UniProt P01857) | 0.36 | 1.82
Trastuzumab Vκ5–VH3 IgG1 (from UniProt P01857) | 0.32 | –
Pertuzumab Vκ6–VH2 IgG1 (from UniProt P01857) | 0.31 | 0.79
Pertuzumab Vκ6–VH7 IgG1 (from UniProt P01857) | 0.28 | 0.98
Pertuzumab Vκ6–VH4 IgG1 (from UniProt P01857) | 0.27 | 0.81
Pertuzumab Vκ2–VH4 IgG1 (from UniProt P01857) | 0.25 | 1.57
Trastuzumab Vκ2–VH4 IgG1 (from UniProt P01857) | 0.28 | 1.29
